We go through seven molecules from PMC1851640.

The target in series [1] is T1, StpA (Escherichia coli) (UniProt P0ACG1).
T1 sequence: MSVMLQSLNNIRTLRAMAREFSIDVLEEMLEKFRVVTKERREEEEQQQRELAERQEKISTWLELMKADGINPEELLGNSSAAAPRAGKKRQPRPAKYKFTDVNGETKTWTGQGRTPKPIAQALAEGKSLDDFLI
In words: filter binding.

In series [2] the test system is G126V-StpA (Escherichia coli). The series is described as follows: filter binding.
The target in series [3] is T2, StpA (Escherichia coli, UniProt P0ACG1 1-134).
T2 sequence: T1 sequence
In words: filter binding.

In series [4] the target is T2, StpA. The series is described as follows: filter binding. This is another data set of the same source.
Series [5] addresses T2, StpA. The series is described as follows: FRET.

A word on the Kd: it is the free concentration of one partner at which half of the binding sites on the other are occupied at equilibrium, for simple one-to-one binding. A low value points to higher affinity. Turning to sho-sho td pre-mRNA, in series [1], the Kd came to 730 nM and the binding signal worked out at 17 % bound.
For sho-sho tdC865U pre-mRNA, the binding signal came to 7 % bound in series [2] and 27 % bound in series [1].
td mRNA (intronless): the Kd in series [1] was found to be 580 nM.
With td ribozyme RNA, the binding signal in series [1] came to 70 % bound.

B1: 21R+/21R- duplex (dsRNA)
RNA 1: AUGUGGAAAAUCUCUAGCAGU
RNA 2: ACUGCUAGAGAUUUUCCACAU
B1: the binding result in series [3] is given as “no binding”.
For the molecule AUGUGGAAAAUCUCUAGCAGU (ssRNA) [21R+], the binding result in series [4] is reported as “binds”.

B2: 21R+ and duplex- (non-complementary pair) (ssRNA)
RNA 1: AUGUGGAAAAUCUCUAGCAGU
RNA 2: CUUUCAUUGGUCGGUCUCUCC
As to B2, in series [5], the binding result was “binds”.
